pKd: −log10 of the molar value.

This test concerns the target 6xHis-FN1, the first fibronectin type III repeat (FN1) of the neural cell adhesion molecule NCAM. Briefly: ITC. In general terms: ITC needs no label: the signal is the heat of the interaction.

For “6xHis-SUMO-PBR, ST8Sia-IV polybasic region peptide (residues 75-100) fused to an N-terminal 6xHis-SUMO tag (from UniProt Q92187 75-100)”, the pKd (commonly −log10 of the Kd, conventionally taken in molar units) is 4.96; the dH amounted to 0.991 kcal/mol; the stoichiometry N (as a rule, a count of units in the complex or per binding partner) stood at 1.06.
